± gives the standard deviation of the averaged measurements.
B1: library; a variant is named by its letters at N, in order (parent)
chain: GCUGUCACCGGUGUAUUACCCUAGUGGUCGACCGGUCUGAUGAGUCUNNNNNNAGACGAAACAGC

Assays:
[1] = variants of: B1; experiment: FACS-Seq fitted mean relative fluorescence mCherry/BFP without ligand (log10 relative fluorescence); ligand: hypoxanthine (xanthine aptamer); higher = higher reporter protein expression; conditions: HEK293T, ligand present: no
Method in brief: (§1)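 An mCherry reporter containing the ribozyme switch and an EF1α-BFP marker were introduced by lentivirus into HEK293T libraries. Cells were enriched, incubated 48 h with or without ligand, sorted into 6 bins by mCherry/BFP, and bin genomic DNA was PCR-amplified, barcoded and sequenced on MiSeq. Fluorescence represents the normalized fitted normal mean of the bin counts. Fitting was done on log10(mCherry/BFP), scaling to five spiked-in control ribozymes.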

[2] = variants of: B1; experiment: normalized RNA/DNA level with ligand (relative to sTRSVctl = 100) (log10 (% of sTRSVctl)); ligand: hypoxanthine (xanthine aptamer); higher = less ribozyme self-cleavage, higher mRNA level; conditions: ligand concentration (+) RNA-Seq: 5 mM, HEK293T, reporter: mCherry (pCS4076), ligand present: yes
Method in brief: (§2)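 Ribozyme switch library plasmids linked to reporters were introduced into HEK293T cells at 4 µg per 6-well well, with ligand, if any, added 1 h before. Total RNA was extracted with EDTA 72 h later, reverse-transcribed, amplified, barcoded and sequenced. RNA level was computed from RNA over DNA reads relative to a spiked-in non-cleaving sequence or the top sequences, then scaled and log-transformed. The top set was 25 sequences, values were ×100 and log10, and the cutoff was ≥100 DNA reads.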

[3] = variants of: B1; experiment: normalized RNA/DNA level without ligand (relative to sTRSVctl = 100) (log10 (% of sTRSVctl)); ligand: hypoxanthine (xanthine aptamer); higher = less ribozyme self-cleavage, higher mRNA level; conditions: HEK293T, reporter: mCherry (pCS4076), ligand present: no
Method in brief: as §2

[4] = variants of: B1; experiment: FACS-Seq fitted mean relative fluorescence mCherry/BFP with ligand (log10 relative fluorescence); ligand: hypoxanthine (xanthine aptamer); ligand concentration (+) FACS-Seq: 5 mM; higher = higher reporter protein expression; conditions: HEK293T, ligand present: yes
Method in brief: as §1

Variant | FACS-Seq fitted mean (log10) [1] | normalized RNA/DNA level with ligand (log10) [2] | normalized RNA/DNA level without ligand (log10) [3] | FACS-Seq fitted mean (log10) [4]
GGGAAA | 0.227 ± 0.0031 | 1.867 ± 0.0029 | 1.57 ± 0.028 | 0.428 ± 0.03
GGGAAG | -0.183 ± 0.0054 | 1.64 ± 0.023 | 1.18 ± 0.014 | 0.325 ± 0.0034
UGAGGA | 0.402 ± 0.033 | 1.885 ± 0.015 | 1.5 ± 0.056 | 0.633 ± 0.061
GGAUAC | 0.616 ± 0.019 | 1.93 ± 0.026 | 1.73 ± 0.042 | 0.623 ± 0.084
GGAUAG | 0.188 ± 0.013 | 1.83 ± 0.028 | 1.39 ± 0.049 | 0.508 ± 0.041
GGAUAA | 0.5354 ± 0.0025 | 1.9 ± 0.025 | 1.74 ± 0.024 | 0.552 ± 0.016
UGAUUC | 0.59 ± 0.061 | 1.993 ± 0.0057 | 1.977 ± 0.011 | 0.627 ± 0.06
UGAUUU | 0.485 ± 0.022 | 1.945 ± 0.0024 | 1.924 ± 0.012 | 0.6805 ± 0.0064
GGGAGC | -0.04041 ± 0.0004 | 1.74 ± 0.068 | 1.16 ± 0.014 | 0.622 ± 0.026
GGGAGA | 0.0269 ± 0.057 | 1.84 ± 0.02 | 1.429 ± 0.014 | 0.516 ± 0.024
UGCCUG | 0.608 ± 0.0066 | 1.91 ± 0.1 | 1.73 ± 0.042 | 0.712 ± 0.07
UGCCUA | 0.664 ± 0.022 | 1.94 ± 0.039 | 1.929 ± 0.0053 | 0.57 ± 0.049
UGCCUC | 0.735 ± 0.008 | 2 ± 0.064 | 2.01 ± 0.023 | 0.659 ± 0.051
AGCUAC | -0.583 ± 0.06 | 1.96 ± 0.058 | 1.778 ± 0.0088 | -0.175 ± 0.051
GGAUGC | -0.0215 ± 0.024 | 1.85 ± 0.066 | 1.47 ± 0.075 | 0.483 ± 0.029
GGAUGA | 0.427 ± 0.085 | 1.89 ± 0.035 | 1.618 ± 0.0099 | 0.633 ± 0.029
GGAUGG | 0.131 ± 0.02 | 1.85 ± 0.027 | 1.33 ± 0.034 | 0.472 ± 0.035
CGCUAG | 0.118 ± 0.0022 | 1.89 ± 0.063 | 1.79 ± 0.051 | 0.183 ± 0.14
AGCACA | -0.251 ± 0.011 | 1.92 ± 0.044 | 1.787 ± 0.0038 | -0.513 ± 0.043
AGCACG | 0.385 ± 0.023 | 1.87 ± 0.055 | 1.44 ± 0.085 | 0.609 ± 0.062
AGCACC | -0.563 ± 0.05 | 1.98 ± 0.063 | 1.844 ± 0.0071 | -0.00735 ± 0.0039
AGCCCA | 0.0335 ± 0.1 | 1.923 ± 0.018 | 1.88 ± 0.025 | -0.145 ± 0.064
AGCCCG | -0.024 ± 0.027 | 1.956 ± 0.0061 | 1.61 ± 0.087 | 0.388 ± 0.038
UGCGGC | 0.67 ± 0.028 | 1.98 ± 0.035 | 1.9 ± 0.071 | 0.708 ± 0.037

Variant | FACS-Seq fitted mean (log10) [1] | normalized RNA/DNA level with ligand (log10) [2] | normalized RNA/DNA level without ligand (log10) [3] | FACS-Seq fitted mean (log10) [4]
UGCGGA | 0.465 ± 0.014 | 1.87 ± 0.056 | 1.518 ± 0.0062 | 0.733 ± 0.033
UGCUCA | 0.419 ± 0.016 | 1.94 ± 0.0052 | 1.98 ± 0.061 | 0.498 ± 0.057
CGCUGA | 0.643 ± 0.033 | 1.9529 ± 0.00012 | 1.89 ± 0.03 | 0.635 ± 0.0074
CGCUGC | 0.163 ± 0.06 | 1.98 ± 0.096 | 1.95 ± 0.083 | 0.518 ± 0.079
AGCUGG | -0.403 ± 0.022 | 1.91 ± 0.069 | 1.57 ± 0.035 | -0.291 ± 0.096
AGCUGA | 0.203 ± 0.08 | 1.91 ± 0.043 | 1.74 ± 0.067 | 0.0306 ± 0.017
AGCUGC | 0.448 ± 0.0077 | 2 ± 0.035 | 1.87 ± 0.076 | 0.755 ± 0.036
GGAUCG | 0.142 ± 0.037 | 1.95 ± 0.053 | 1.6404 ± 0.0014 | 0.517 ± 0.05
CGAUUU | 0.4582 ± 0.0022 | 1.92 ± 0.089 | 1.847 ± 0.012 | 0.5218 ± 0.0046
CGAUUC | 0.279 ± 0.048 | 1.976 ± 0.0063 | 1.89 ± 0.02 | 0.313 ± 0.0095
CGAUUA | 0.312 ± 0.038 | 1.9239 ± 0.001 | 1.64 ± 0.034 | 0.569 ± 0.13
GGCGCA | 0.59 ± 0.026 | 1.977 ± 0.0052 | 1.893 ± 0.0039 | 0.6023 ± 0.0039
UGAUCG | 0.52543 ± 0.00029 | 1.93 ± 0.02 | 1.81 ± 0.025 | 0.589 ± 0.045
GGCUCA | 0.301 ± 0.011 | 1.98 ± 0.031 | 1.91 ± 0.074 | 0.297 ± 0.024
AGCAGA | 0.386 ± 0.043 | 1.879 ± 0.01 | 1.41 ± 0.027 | 0.623 ± 0.019
AGCAGC | 0.426 ± 0.013 | 1.99 ± 0.058 | 1.74 ± 0.049 | 0.54 ± 0.14
AGCAGG | 0.0745 ± 0.0069 | 1.83 ± 0.055 | 1.396 ± 0.0059 | 0.533 ± 0.079
CGCGUA | 0.477 ± 0.0013 | 1.95 ± 0.041 | 1.81 ± 0.067 | 0.659 ± 0.013
AGGAAG | -0.0152 ± 0.00091 | 1.63 ± 0.038 | 1.11 ± 0.055 | 0.161 ± 0.026
AGGAAA | 0.102 ± 0.031 | 1.87 ± 0.019 | 1.56 ± 0.037 | 0.42 ± 0.058
AGGAAC | 0.573 ± 0.093 | 1.91 ± 0.042 | 1.66 ± 0.039 | 0.568 ± 0.099
GGCGUG | 0.107 ± 0.021 | 1.91 ± 0.088 | 1.52 ± 0.022 | 0.291 ± 0.076
CGCAAA | 0.57 ± 0.013 | 1.897 ± 0.0028 | 1.7 ± 0.022 | 0.491 ± 0.024
GGCGGA | 0.416 ± 0.079 | 1.98 ± 0.043 | 1.837 ± 0.013 | 0.534 ± 0.03

Variant | FACS-Seq fitted mean (log10) [1] | normalized RNA/DNA level with ligand (log10) [2] | normalized RNA/DNA level without ligand (log10) [3] | FACS-Seq fitted mean (log10) [4]
AGGAGC | 0.421 ± 0.0061 | 1.883 ± 0.003 | 1.485 ± 0.0035 | 0.5478 ± 0.0022
AGGAGA | 0.176 ± 0.052 | 1.78 ± 0.049 | 1.28 ± 0.033 | 0.621 ± 0.034
CGAUAG | 0.613 ± 0.0027 | 1.86 ± 0.12 | 1.7 ± 0.063 | 0.639 ± 0.052
CGAUAC | -0.0585 ± 0.029 | 1.894 ± 0.0067 | 1.69 ± 0.019 | 0.176 ± 0.056
CGAUAA | 0.668 ± 0.13 | 1.86 ± 0.047 | 1.57 ± 0.022 | 0.637 ± 0.12
UGGAGA | 0.259 ± 0.025 | 1.791 ± 0.0083 | 1.33 ± 0.092 | 0.644 ± 0.0081
UGGAGC | 0.45 ± 0.088 | 1.959 ± 0.019 | 1.707 ± 0.01 | 0.69 ± 0.031
AGCUCG | 0.177 ± 0.0048 | 1.931 ± 0.0082 | 1.63 ± 0.11 | 0.448 ± 0.0069
UGCGUA | 0.287 ± 0.015 | 1.92 ± 0.05 | 1.86 ± 0.032 | 0.413 ± 0.031
AGCCUG | 0.523 ± 0.04 | 1.92 ± 0.059 | 1.5724 ± 0.00079 | 0.67 ± 0.037
AGCCUU | 0.466 ± 0.071 | 1.97 ± 0.022 | 1.933 ± 0.0025 | 0.317 ± 0.091
CGGACA | 0.518 ± 0.098 | 1.9 ± 0.068 | 1.66 ± 0.037 | 0.612 ± 0.016
GGAGCU | 0.211 ± 0.041 | 1.956 ± 0.0072 | 1.96 ± 0.044 | -0.117 ± 0.033
AGAGGU | 0.557 ± 0.061 | 1.9 ± 0.035 | 1.52 ± 0.032 | 0.802 ± 0.07
AGAGGA | 0.5707 ± 0.0052 | 1.892 ± 0.016 | 1.6297 ± 0.00023 | 0.701 ± 0.028
AGGACG | 0.233 ± 0.013 | 1.784 ± 0.01 | 1.37 ± 0.036 | 0.567 ± 0.0099
AGGACU | 0.894 ± 0.099 | 1.94 ± 0.058 | 1.802 ± 0.0094 | 0.734 ± 0.031
AGGACC | 0.421 ± 0.0047 | 1.94 ± 0.042 | 1.88 ± 0.028 | 0.565 ± 0.034
UGAUGA | 0.599 ± 0.053 | 1.906 ± 0.0054 | 1.58 ± 0.035 | 0.575 ± 0.14
AGCGUG | 0.152 ± 0.014 | 1.798 ± 0.014 | 1.37 ± 0.042 | 0.398 ± 0.032
AGCGUC | 0.8 ± 0.033 | 1.971 ± 0.0074 | 1.966 ± 0.01 | 0.743 ± 0.075
AGCCGA | 0.399 ± 0.018 | 1.925 ± 0.0069 | 1.68 ± 0.027 | 0.547 ± 0.036
AGCCGG | -0.0509 ± 0.035 | 1.91 ± 0.012 | 1.67 ± 0.02 | 0.305 ± 0.055
AGAUUC | 0.691 ± 0.017 | 1.92 ± 0.051 | 1.92 ± 0.037 | 0.707 ± 0.069
